Reference: article PMC4549274
Values belong to the substance of their own block, whether it stands above or below them.

How the values were obtained:
Assay in all cases: native MS; nano-ESI native MS, 15 μM monomer, buffer-exchanged into 100 mM ammonium acetate pH 8.5, positive ion mode
[1] = target: CrRbcX-IIa(34–189) (Chlamydomonas reinhardtii)
[2] = target: CrRbcX-IIa(33–189) (Chlamydomonas reinhardtii)
[3] = target: CrRbcX-IIa(34–156) (Chlamydomonas reinhardtii)

- stoichiometry N [1]: 4
Substance: CrRbcX-IIa(34–189) (domain or fragment)

- stoichiometry N [2]: 2
Substance: CrRbcX-IIa(33–189) (natural protein)

- stoichiometry N [3]: 4
Substance: CrRbcX-IIa(34–156) (domain or fragment)
